Laboratory results reported in patent publication US11904004B2, “Anti-CD277 antibodies” (INSTITUT NATIONAL DE LA SANTE ET DE LA RECHERCHE MEDICALE …, priority 2010, dated 2024).
“And” between values parts separate entries of the source, which are not always exact repeats. Identical values can stand only once.

Assays:
iDC = assay: Costimulatory molecules expression on iDC, flow cytometry; assay type: cell-based, human; settings: coated mAb
Protocol: (§1) Blood samples were obtained from 5 healthy volunteers enrolled among the staff members, after informed consent. Monocytes were separated from peripheral blood mononuclear cells, and isolated using the MACS CD14 isolation kit (Miltenyi Biotech, Auburn, Calif. USA). Monocytes were cultured for 5 days with 200 ng/ml of recombinant human GM-CSF and 10 ng/ml recombinant human IL-4 (Schering-Plough Research Institute). These cells were termed immature dendritic cells (iDC). To achieve the stimulation, monocytes and iDC were cultured with 10 ng/ml of LPS, ligand for TLR4, 30 μg/ml of 8848 (Sigma-Aldrich, Milano, Italy), ligand for TLR7/8 and with […] of poly (I:C) (Sigma-Aldrich), ligand for TLR3, and were harvested after 48 h. The cells were cultured in RPMI 1640 supplemented with 10% heat-inactivated FCS, 5 mM L-glutamine and 50 IU/ml penicillin-streptomycin (from here on referred to as complete medium).
Monocytes and iDCs before and after stimulation were analysed by imunofluorescence flow cytometry (FACScalibur Becton Dickinson, Milano, Italy) to verify their activation state. […]

[1] = system: immature dendritic cells (iDC); assay: Apoptosis detection (Annexin V), survival of iDC; assay type: cell-based, human; settings: plastic-coated mAb or GM-CSF, 72-h culture, representative value and range of five experiments, listed as anti-BT3 mAb
Protocol: as §1
(§2) Monocytes and iDC were cultured on plastic coated with anti-BT3 mAb (clone 20.1) or with isotype-matched irrelevant mAb. As control, the cells were stimulated with 20 ng/ml recombinant human GM-CSF (Schering-Plough Research Institute). After three days, cells were harvested, stained with Annexin V-FITC (Bender MedSystems, Wien, Austria) and analysed by flow cytometry.

CD4+ T cells = assay: Functional assays on CD4+ T cells using plate-immobilized mAbs; assay type: cell-based, human
Protocol: Purified CD4+ T cells (200×10^3 cells/well) from thawed human PBMCs were cultured in RPMI 1640 10% FBS in flat bottom 96-well plates (MICROTEST™ 96, BD) with previously plate-immobilized mouse anti-human CD3 (clone OKT3)/CD28 (clone CD28.2) or anti-CD3/anti-CD277 (clone 20.1) or anti-CD3/isotypic control (IgG1). Purified anti-CD3 was used at 0, 3 μg/ml. Anti-CD28, anti-CD277 and isotypic control were used at 10 μg/ml. Cells were placed into an atmosphere of 5% CO2 at 37° C. in a humidified incubator. […] […] Data were analyzed using FLOWJO® Software (TreeStar, Ashland, OR).

monocytes [2] = assay: Costimulatory molecules expression on monocytes, flow cytometry; assay type: cell-based, human
Protocol: as §1
Monocytes and iDCs before and after stimulation were analysed by imunofluorescence flow cytometry (FACScalibur Becton Dickinson, Milano, Italy) to verify their activation state. To this end, mAb specific for CD80, CD86, HLA-DR, CD1a, CD14 (BD Becton Dickinson), BT3 (clone 20.1, IgG1) and BT3 Fab2 were previously selected, purified and characterised (Bensussan and Olive, 2005, Compte et al., 2004) or irrelevant molecules (anti-CD19, Becton Dickinson, and anti-CD31, clone Moon-1, provided by F. Malavasi, both IgG1) were used. All the available anti-BT3 mAbs are unable to discriminate among the three members of this family (BT3.1, BT3.2, or BT3.3), probably due to their high sequence homology (Compte et al., 2004, Bensussan and Olive, 2005). As further control, to block the possible effect of trace amounts of endotoxin, polymyxin B (10 μg/ml, Sigma-Aldrich) was added to the anti-BT3 mAb 20.1 before adding the cells.

[3] = system: Daudi, K562 or Raji cells lines; assay: Anti-tumor cytolysis by Vγ9Vδ2 T cells against tumor cell lines (CD107a/b degranulation); assay type: cell-based, human
Protocol: We used for γδ T cells labelling in purity test after expansion, anti-CD3 PE-Cy7 and anti-Vδ2 FITC mAb (BD Pharmingen). For CD277 characterisation in different subsets PBMC were incubated with the following antibodies and molecules: anti-CD3 PE-Cy5 (BD Pharmingen), anti-CD4 PB (BD Pharmingen), anti-CD8 PB (BD Pharmingen), anti-Vδ2 FITC (BD Pharmingen), anti-CD27 APC ALEXA FLUOR® 750 (CALTAG Laboratory), anti-CCR7 PECy7 (BD Pharmingen), anti-CD28 PE (Beckman Coulter), anti-CD45RA ECD (Beckman Coulter), LIVE/DEAD® Fixable Dead Cell Stain Kit (L34957, Invitrogen) and anti-CD277 labelled with ALEXA FLUOR® 647 (Protein labelling Kit ALEXA FLUOR® 647, Molecular Probes, Invitrogen). For analysis of CD107a and CD107b expression, γδ T cells and target cells were co-incubated at 37° C. with anti-CD107a FITC and anti-CD107b FITC in presence of monensin (10 μM, GOLIGISTOP®, BD Bioscience). […] All samples were measured on FACSCANTO® or FACSARIA® flow cytometers (BD Biosciences) using FACSDIVA® software. […]
Target cells were labelled with 20 μCi of 51Cr (PerkinElmer) for 1 h at 37° C. […] The radioactivity released by target cells was measured, 4 h later, on beta plate counter. The percentage of specific 51Cr lysis was calculated using the following equation: percent specific lysis=100×[(test release)−(spontaneous release)]/[(maximal release)−(spontaneous release)].

monocytes [4] = assay: Apoptosis detection (Annexin V), survival of monocytes; assay type: cell-based, human; settings: both monocytes and iDC; data not shown
Protocol: as §1, §2

Vγ9/Vδ2 T cells = assay: Cytolytic function, cytokine production and proliferation of Vγ9/Vδ2 T cells; assay type: cell-based
Text: Typically the activation of the cytolytic function of Vγ9/Vδ2 T cells may be measured according to the method described in example 3 (i.e. “Analysis of Vγ9Vδ2 T cell responses by direct cytotoxicity assay”, and for example the results “CD277 potentiate the anti-tumor cytolysis mediated by Vγ9Vδ2 T cells”). Examples of isolated anti-CD277 antibodies, which activate the cytolytic function, cytokine production and proliferation of Vγ9/Vδ2 T cells, are mAbs 20.1 or 7.2, or derivatives thereof.
Target cells were labelled with 20 μCi of 51Cr (PerkinElmer) for 1 h at 37° C. After washing target cells were incubated with effectors Vγ9Vδ2 T cells for 4 h at 37° C. in different ratio. Incubations were performed in presence of specific or isotype control mAbs or Fab fragments. The radioactivity released by target cells was measured, 4 h later, on beta plate counter. The percentage of specific 51Cr lysis was calculated using the following equation: percent specific lysis=100×[(test release)−(spontaneous release)]/[(maximal release)−(spontaneous release)].

[5] = co-stimulation with anti-CD3, vs anti-CD3/IgG1 control, after 24 hours of culture

B1: mAb 20.1: murine anti-CD277 antibody obtainable from the hybridoma CNCM I-4402; agonist (antibody, V domains shown)
VH: QVQLQQSGAELVKPGASVKLSCKASGYTFTRYYLYWVKQRPGQGLEWIGEINPNNGGTKFNEKFKSKATLTVDKSSRTTYIQLSSLTSEDSAVYYCSREDDYDGTPDAMDYWGQGTAVTVSS
VL: DIQMNQSPSSLSASLGDTITITCHASQNINLWLSWYQQRPGNIPKLLIYRASNLHTGVPSRFSGSGSATGFTLTISSLQPEDIATYYCQQGHSYPYTFGGGTKLDIK
expression of CD80, CD86 and HLA-DR on iDC (iDC): increased expression | healthy-vital (surviving) iDC [1]: 56.75% and 53.13-60.71% | IFN-γ production by CD4+ T cells (ELISA) (CD4+ T cells; [5]): strongly enhanced | IL-2 production by CD4+ T cells (ELISA) (CD4+ T cells; [5]): significantly highest than the one with the IgG control | CD25 activated positive cells (CD4+ T cells; co-stimulation with anti-CD3, after 3 days of culture): 45% | CD80 and HLA-DR molecules at the monocyte surface (monocytes [2]; coated mAb): up-regulation | cell surface costimulatory molecule CD86 on monocytes (monocytes [2]; coated mAb, 24 h stimulation): up-regulation | activating effect in the presence of polymyxin B (monocytes [2]; polymyxin B 10 μg/ml): maintained | cellular activation with non-coated (soluble) mAb (monocytes [2]; soluble mAb, no cross-linking, data not shown): no effect | function/activation of Vγ9Vδ2 T cells against tumor targets (CD107a/b degranulation assay) [3]: potentiated or revealed | lowest anti-BT3 mAb dilution able to promote a good survival capability (monocytes [4]): 10 µg/mL | cytolytic function, cytokine production and proliferation of Vγ9/Vδ2 T cells (Vγ9/Vδ2 T cells): activate
